{
  "source": "the DeepSol protein solubility set",
  "data": [
    {"test": "soluble on expression in E. coli; label from the status in PepcDB or PDB records", "values": [
      {"sequence": "SKRKARRGAGMPDYETVALVLQGGGALGAYQAGVYEGLHAAGIRPNWLAGISIGGINAAIIAGAPVDERVGRLRGFWEAICRPTGFVGLPWGDAWAALFANAPFGFGSNQSNGQLAAFNALTRGQPGFFEPRFPPPYLVQGGGAAATSFYDTTPLLQTLRDYVDFDLLNRGDVRVSLGAVNVRTGNFAYFDSRETVIRPEHVMASGALPPGFPAIEIDGEFYWDGGLVSNTPLTKVLAVHPMRDTLAFQVDLWPARGPLPTSLEEVAERQKDIQYSSRTRIVTDTFRRQLKLRRSLQRVLDRLPPQVRSSRELAQIRREACTPLVNVVNLIYEANQFERHSKDYEFNTESMREHWRFGLADIERTLAQPGV", "soluble on expression in E. coli": "not soluble"},
      {"sequence": "MDVLNAANDLLPLLPEVQDALSEDFDGVECSMGAGVVLEQAPFRMAFPHMGRQVTFVPDTSCLEEFDGAKLHRINLGPKSAVFTDGEPGCCMELILGAGKDWKTPLVKLFSRVYPNKWAFFITELESGQATYHILSSSHGMLSSARREDTPDSTEQSSMVSSPTASVSDATNYSLWIVPVTKVFAIPAPKKVKVVRKVIKKRTPVDGSTNGTNGTSVVNGNGTMNGHVSPEDGERKVRLVKKKPPTEKLESSTEREISPLNDLPKPEFSTIASSESMKTVINGKSEREEAGPSNDSSDGGSASELRKKLTEKIMEQKFMVNGEQRALNGNASSRGLGRSISRSSMTPDRRLDPILEDGSKQRQAIASAISVNRPSITRNSATPPMTPHSKLALEMLFKLDKLWKYFKFIYSKCRYTFIQFFNSTFSNTKIYSVEIMDAEVIKVLVSHPSKPNIPVMVLQLVLTKCLNYEHLGRLREVHPHWDEIAGQLLNSGYYKLLERSDKLLMTLQRKVVSDPGLHYATSVLTNIQMHILNPVDIMRAVLDEGVCCFPYGVILDKTFILLDKVEAMLHGSYEEDVHWEPVAKLAKKAASHYRGNLERVMEERMGENLRLKAAQRIIRLESFVVDAQVAKLEKESNKAKEDVRWEIDQLHQKNSQLRKDNREMKANQMRLEARVEALEQKFKTLARLLS", "soluble on expression in E. coli": "not soluble"},
      {"sequence": "MGSDKIHHHHHHMRALDIAATGMSAQQLRVDVISNNIANMSTTGYSPRRADFADLHYQQMVRAGAINASDGTVVPAGVQIGLGVRPAAVTVTWEQGTLGATGGQLDVAIEGRGYLEVTLPSGDNAYTRDGALQRTGDGLIVTNDGFEVNPGITIPDDAQEITINANGEVFASFRGEIQPQLLGQLNMVRFTNDNGLEAIGSNLFLETGASGAPLAGDPGEDGMGTFRQGYVEQSSVDAVREITDLIEAQRGYELNAKVLTAADQILGATTQVR", "soluble on expression in E. coli": "not soluble"},
      {"sequence": "MAITINIYYSGTNGGAREFAKEMIASGIVEAIRAEKGNSRYEYFFPMDDEETVLLIDSWTDQEALDKHHASPMMTRITELREKYDLHMKVERYVSDVTDPLTKDAAFIRK", "soluble on expression in E. coli": "not soluble"},
      {"sequence": "MVFRCHYILVLEGFITQKNRLEHGGKDAGVEPPPYSNAAHHLTPWNDKRAIEAQELLKEFGIHHDSAANGVFLPYKVNEYVTTEVLHIGNHCTDYMKEVTKVLKEVKEYGGTQADAVAALHDIRIRLLDGSLKLNSPK", "soluble on expression in E. coli": "not soluble"},
      {"sequence": "MTSVTDRSAHSAERSTEHTIDIHTTAGKLAELHKRREESLHPVGEDAVEKVHAKGKLTARERIYALLDEDSFVELDALAKHRSTNFNLGEKRPLGDGVVTGYGTIDGRDVCIFSQDATVFGGSLGEVYGEKIVKVQELAIKTGRPLIGINDGAGARIQEGVVSLGLYSRIFRNNILASGVIPQISLIMGAAAGGHVYSPALTDFVIMVDQTSQMFITGPDVIKTVTGEEVTMEELGGAHTHMAKSGTAHYAASGEQDAFDYVRELLSYLPPNNSTDAPRYQAAAPTGPIEENLTDEDLELDTLIPDSPNQPYDMHEVITRLLDDEFLEIQAGYAQNIVVGFGRIDGRPVGIVANQPTHFAGCLDINASEKAARFVRTCDCFNIPIVMLVDVPGFLPGTDQEYNGIIRRGAKLLYAYGEATVPKITVITRKAYGGAYCVMGSKDMGCDVNLAWPTAQIAVMGASGAVGFVYRQQLAEAAANGEDIDKLRLRLQQEYEDTLVNPYVAAERGYVDAVIPPSHTRGYIGTALRLLERKIAQLPPKKHGNVPL", "soluble on expression in E. coli": "soluble"},
      {"sequence": "MGSDKIHHHHHHMTTTEQELTLTPLRGKSGKAYKGTYPNGECVFIKLNTTPILPALAKEQIAPQLLWAKRMGNGDMMSAQEWLNGRTLTKEDMNSKQIIHILLRLHKSKKLVNQLLQLNYKIENPYDLLVDFEQNAPLQIQQNSYLQAIVKELKRSLPEFKSEVATIVHGDIKHSNWVITTSGMIFLVDWDSVRLTDRMYDVAYLLSHYIPRSRWSEWLSYYGYKNNDKVMQKIIWYGQFSHLTQILKCFDKRDMEHVNQEIYALRKFREIFRKK", "soluble on expression in E. coli": "not soluble"}
    ]}
  ]
}
